Measurements from article PMC12691637.

Molecular target: cytosolic fragment of the McpN chemoreceptor (McpN_CF) (Pseudomonas aeruginosa PAO1)
Assay: ITC; VP microcalorimeter, 25°C; 3 mM Tris, 3 mM PIPES, 3 mM MES, 5 mM 2-mercaptoethanol, pH 8.0; 10 µM cytosolic fragment in the sample cell titrated with 12.8 µL aliquots of 113 µM CheV or CheV D238E; 'Two Binding Sites' model

CheV D238E (phosphorylation mimic) of Pseudomonas aeruginosa PAO1 (natural protein)
KD of the first event (high affinity, endothermic): 0.008 µM | KD of the second event (lower affinity, exothermic): 3 µM | N of the first event: 0.5
